Experiments:
HsaC = target: T1, HsaC (Mycobacterium tuberculosis, UniProt P9WNW7); format: biochemical; conditions: 20 mM HEPES, 80 mM NaCl, pH 7.0, 5% O2, 25°C; slow substrate, mechanism-based oxidative inactivation
T1 construct: full-length, recombinant in E. coli, purified anaerobically, no tag mentioned; Fe(II) enzyme; gene 903 bp; octamer

[1] = test system: Cc1ccc(O)c(O)c1CC[C@@H]1C(=O)CC[C@]2(C)C(=O)CC[C@@H]12; assay: purified protein; conditions: pH 7.0; 25.0 °C
Oc1cccc(-c2ccccc2)c1O = assay: purified protein; conditions: pH 7.0; 25.0 °C
[2] = test system: Cc1cc(Cl)c(O)c(O)c1CCc1ccccc1Cl; assay: purified protein; conditions: pH 7.0; 25.0 °C
[3] = test system: Cc1ccc(O)c(O)c1CCc1ccccc1Cl; assay: purified protein; conditions: pH 7.0; 25.0 °C

T1 sequence (P9WNW7 whole entry): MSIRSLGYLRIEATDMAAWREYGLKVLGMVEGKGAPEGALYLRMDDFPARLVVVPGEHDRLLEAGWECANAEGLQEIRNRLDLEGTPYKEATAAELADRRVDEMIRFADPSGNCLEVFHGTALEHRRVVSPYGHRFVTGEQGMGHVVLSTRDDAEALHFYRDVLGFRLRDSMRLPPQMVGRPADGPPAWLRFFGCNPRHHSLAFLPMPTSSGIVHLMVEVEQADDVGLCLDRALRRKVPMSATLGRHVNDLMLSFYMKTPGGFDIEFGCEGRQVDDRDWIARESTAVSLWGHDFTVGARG

Molecule: Oc1cccc(-c2c(Cl)cccc2Cl)c1O [2′,6′-diCl DHB]
- Km (HsaC): 6.7 µM

Molecule: HsaC (Mycobacterium tuberculosis H37Rv)
- Km [1]: 1.1 (0.2) µM
- kcat/Km [1]: 1.5e+07 M⁻¹ s⁻¹
- Km (Oc1cccc(-c2ccccc2)c1O): 10 (2) µM
- kcat/Km (Oc1cccc(-c2ccccc2)c1O): 160000 M⁻¹ s⁻¹
- Km [2]: 3.2 (0.3) µM
- kcat/Km [2]: 85000 M⁻¹ s⁻¹
- Km [3]: 4.8 (0.6) µM
- kcat/Km [3]: 1.4e+06 M⁻¹ s⁻¹
